As a reminder, the Kd is the equilibrium constant for the complex coming apart.

The target of this data set is T1, La 1-408 (full-length Lupus La) (Homo sapiens, UniProt P05455 1-408).
T1 sequence: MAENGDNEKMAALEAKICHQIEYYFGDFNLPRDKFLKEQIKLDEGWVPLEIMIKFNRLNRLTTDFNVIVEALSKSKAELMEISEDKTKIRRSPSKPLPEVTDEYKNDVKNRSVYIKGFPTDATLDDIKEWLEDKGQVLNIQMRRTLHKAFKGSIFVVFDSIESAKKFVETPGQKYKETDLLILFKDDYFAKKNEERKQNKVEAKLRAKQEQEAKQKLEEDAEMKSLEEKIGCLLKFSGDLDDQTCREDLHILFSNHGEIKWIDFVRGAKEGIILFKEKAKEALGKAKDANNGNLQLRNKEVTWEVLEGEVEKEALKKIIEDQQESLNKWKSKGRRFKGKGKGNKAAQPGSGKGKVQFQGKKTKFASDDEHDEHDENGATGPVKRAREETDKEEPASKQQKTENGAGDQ
As to the kind of experiment: EMSA; EMSA: 1 nM miRNA, 25 mM Tris-HCl pH 8.0, 100 mM KCl, 1.5 mM MgCl2, 1 mM DTT, 0.05% NP-40, 5% glycerol, 50 ug/ml heparin, 1 U/ul RiboLock; 30 C 30 min then 4 C 10 min; Hill fit. Conditions: protein: recombinant; tags: C-terminal Nluc-FLAG-His6; label: 5' IRD800; single strand.

Regarding UGGAGUGUGACAAUGGUGUUUG (ssRNA) [miR-122 (hsa-miR-122-5p?)], the Kd was determined as 14.1 nM.

As for UGAUAUGUUUGAUAUAUUAGGU (ssRNA) [miR-190], the Kd stood at 1150 nM.

For the origin of these results see PMC12755392, “p62 sorts Lupus La and selected microRNAs into breast cancer-derived exosomes”.
